Data taken from US20210261685A1 (Alector, published 2021).

T1: Recombinant human MerTK human Fc Chimera protein (R&D systems, Cat #391-MR-100) (human, UniProt Q12866 26-499, limits assumed)
T1 construct: Bought; also called recombinant human MerTK protein; MerTK-Fc
T1 sequence: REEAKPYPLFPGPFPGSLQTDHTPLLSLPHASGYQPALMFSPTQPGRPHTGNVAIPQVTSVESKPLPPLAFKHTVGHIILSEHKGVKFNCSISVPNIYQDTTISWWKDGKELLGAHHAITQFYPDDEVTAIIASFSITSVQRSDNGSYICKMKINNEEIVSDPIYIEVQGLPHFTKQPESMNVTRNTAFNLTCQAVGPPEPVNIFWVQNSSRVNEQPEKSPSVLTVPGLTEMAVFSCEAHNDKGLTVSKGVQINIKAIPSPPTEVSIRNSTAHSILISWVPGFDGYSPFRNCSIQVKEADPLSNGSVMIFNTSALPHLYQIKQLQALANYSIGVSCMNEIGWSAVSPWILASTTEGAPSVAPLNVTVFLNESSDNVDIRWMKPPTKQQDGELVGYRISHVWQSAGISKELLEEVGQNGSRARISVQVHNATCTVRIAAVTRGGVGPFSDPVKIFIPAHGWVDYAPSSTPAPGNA

T2: human Axl ECD construct (Full Axl) with linker+His+Avi tag (human, UniProt P30530 26-451)
T2 construct: tested as Expi293 supernatant; also called ECD domain of human Axl
T2 sequence: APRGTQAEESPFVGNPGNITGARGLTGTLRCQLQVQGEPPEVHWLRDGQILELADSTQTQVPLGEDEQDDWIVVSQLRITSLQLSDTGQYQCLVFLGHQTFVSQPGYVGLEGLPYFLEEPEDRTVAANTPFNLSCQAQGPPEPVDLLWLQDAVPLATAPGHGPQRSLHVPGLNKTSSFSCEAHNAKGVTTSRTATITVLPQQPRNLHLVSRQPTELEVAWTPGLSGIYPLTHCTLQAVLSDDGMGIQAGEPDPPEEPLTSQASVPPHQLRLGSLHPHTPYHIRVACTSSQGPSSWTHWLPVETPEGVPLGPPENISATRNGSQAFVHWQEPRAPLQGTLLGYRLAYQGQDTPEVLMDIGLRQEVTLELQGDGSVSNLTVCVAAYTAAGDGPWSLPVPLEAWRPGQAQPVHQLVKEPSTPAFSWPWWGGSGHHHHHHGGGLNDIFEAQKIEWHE


Columns and labels:
[1] = biological target: T1, Recombinant human MerTK human Fc …; experiment: competition ELISA: His-tagged ProS (20 ug/ml) binding to captured human MerTK-Fc, anti-His-HRP detection; blocked ligand ProS
Procedure: (§1) Rabbit anti-human IgG polyclonal antibody (Jackson ImmunoResearch, Cat #309-005-008) was captured to a high-protein binding plate at 2 μg/ml 4° C. overnight. After washing with 0.05% Tween20 in PBS three times, 5% BSA in PBS was added for 1 hour. Recombinant human MerTK human Fc Chimera protein (R&D systems, Cat #391-MR-100) was added at 2 μg/ml for 1 hour and the plates were then washed. Anti-MerTK antibodies were titrated to final concentration range of between 66.6 nM to 4 pM and then 40 μl of serially diluted antibody and 40 μl of His tag-conjugated recombinant Gas6 protein (R&D systems, Cat #885-GSB-050) at 3 μg/ml or His tag-conjugated recombinant ProS protein (R&D systems, Cat #9489-PS-100) at 20 μg/ml. After a further incubation for 1 hour, plates were washed and incubated for 1 hour with HRP-conjugated anti-6×His tag antibody (Abcam, Cat #ab1187). Plates were then washed and an HRP substrate (TMB) was used to develop the plates. After sufficient color change was observed, the reaction was stopped by adding 50 μl 2N H₂SO₄ and the OD was measured using a spectrophotometer (BioTek).

[2] = biological target: T2, human Axl ECD construct (Full Axl) with …; experiment: SPR, Carterra LSA, antibody immobilised, construct supernatant injected
Procedure: Binding of anti-MerTK antibodies of the present disclosure to these domain-swapped chimera or deletion mutants (prepared as described above) was tested by Surface Plasmon Resonance (SPR) using Carterra LSA. Purified anti-MerTK antibodies were immobilized in duplicate on a HC30M chip (Carterra) by amine coupling, following the manufacturer's instructions (described previously). Supernatants containing the constructs were diluted 1:1 with running buffer containing 0.5 mg/mL BSA (HBS-TE, Carterra) and injected over the immobilized antibodies. The surface was regenerated with 10 mM Glycine pH2.0 after each construct injection. Sensorgrams were analyzed using Carterra Epitope software to identify patterns of construct binding. Loss of binding to MerTK constructs with domains deleted or swapped in from Axl and/or gain of binding to Axl constructs with MerTK domains swapped in were evaluated. Data from these studies was used to construct a domain binding map for anti-MerTK antibodies and their binding to various domains of human MerTK.

[3] = biological target: T1, Recombinant human MerTK human Fc …; experiment: competition ELISA: His-tagged Gas6 (3 ug/ml) binding to captured human MerTK-Fc, anti-His-HRP detection; blocked ligand Gas6
Procedure: as §1

Row | Binder | IC50 (read off the curve) [1] | binding result [2] | IC50 (read off the curve) [3]
1 | MTK-18 (antibody, human IgG1, V domains shown) VH: QIQLVQSGPELKKPGETVKISCKASGYTFTHYGMTWVKQAPGKGLKWMGWINTYTGEPTYADDFKGRFAFSLETSASTAYLQINNLKNEDTATYFCARGGGQLGLRPLDYWGQGTTLTVSS VL: DIQMTQTTSSLSASLGDRVTFSCRASQAISNYLNWYQQKPDGTVKLLIYYTSRLHSGVPSRFSGSGSGTDYSLTISNLEQEDIATYFCQQGNTLPWTFGGGTKLEIK | ~5 nM |  | 
2 | MTK-21 (antibody, human IgG1, V domains shown) VH: QIQLVQSGPELKKPGETVKISCKASGYTFTNFGMTWVRQAPGMDLKWMGWINTYTGEPKYADDFKGRFALSLETSASTAYLQITNFKNEDTATYFCARGGGRLGLRPLDYWGQGTTLTVSS VL: DIQMTQTTSSLSASLGDRVTISCRASQDINNYLNWYQQKPDGTVKLLIYYTSSLHSGVPSRFSGSGSGTDYSLTITNLEQEDIATYFCQQGNTLPWTFGGGTRLEIK |  | no binding | ~6 nM
3 | MTK-17 (antibody, human IgG1, V domains shown) VH: QIQLVQSGPELKKPGETVKISCKASGYTFTNFGMNWVKQAPGKGLKWMGWINTYTGEPTYADDFKGRFAFSLETSASTAYLQINNLKNEDTATYFCSRGAVLRAGAMDCWGQGTSVTVSS VL: DIQMTQSSSYLSVSLGGRVTITCKASDHINNWLAWYQQKPGNAPRLLISGATSLETGVPSRFSGSGSGKDYTLSITSLQTEDVATYYCQQYWSTPRTFGGGTKLEIK | 5 to 8 nM |  | 
4 | MTK-16 (antibody, human IgG1, V domains shown) VH: LIQLVQSGPELKKPGETVKISCKASGYTFTNHGMNWVKQDPGKGLKWMGWINTYTGEPTYADDFKGRFVFSMETSASAAFLQINNLKNEDTATYFCARKGVTAARYFDYWGQGTTLTVSS VL: DIVMTQSPKFMSTSVGDRVSITCKASQNVRTAVAWYKKKPGQSPKALINLASNRHTGVPDRFTGSGSGTDFTLTISNVQSEDLADYFCLQHWNYPLTFGGGTKLEIK |  | no binding | ~7 nM
5 | MTK-03 (antibody, human IgG1, V domains shown) VH: DVQLQESGPGLVKPSQSLSLTCSVTGYSITSGYYWNWIRQFPGNTLEWMGYMSFDGDNKFNPSLKNRISITRDTSKNQFFLRLNSVTTEDTATYYCARGGYNYGSTEANWGQGTLVTVSA VL: QIVLTQSPAIMSAFPGEKVTITCSASSSVNYMHWFQQKPGTSPKLWIYSTSNLASGVPARFSGSGSGTSYSLTISRMEAEDAATYYCQQRSSYPFTFGSGTKLEIK | ~4 nM |  | 
6 | MTK-07 (antibody, human IgG1, V domains shown) VH: DVQLQESGPGLVKPSQSLSLTCSVTGYSITSGYYWNWIRQFPGNTLEWMGYMSFDGDNKFNPSLKNRISITRDTSKNQFFLRLNSVTTEDTATYYCARGGYNYGSTEANWGQGTLVTVST VL: QIVLTQSPAIMSAFPGEKVTITCSASSSVTYMHWFQQKPGTSPKLWIFSTSNLASGVPARFSGSGSGTSYSLTISRMEAEDAATYYCQQRSSYPFTFGSGTKLEIK | ~3 nM |  | ~8 nM
7 | MTK-10 (antibody, human IgG1, V domains shown) VH: QVTLKESGPGILQPSQTLSLTCSFSGFSLTTSGMGVGWIRQPSGKGLEWLAHIWSDDDKRSNPALKSRLTISQDSSTNQVFLKIASVDTADSATYYCSHLTPVREFAYWGPGTLVTVSE VL: DIQMTQTTSSLSASLGDRVTISCSASQGISNYLNWFQQKPDGTVKLLIYYTSRLHSGVPSRFSGSGSGTDFSLTISNLEPEDIATYYCQQYTKLPYTFGGGTKLEIK |  | no binding | 
8 | MTK-33 (antibody, human IgG1, V domains shown) VH: QVQLQQPGPELVRPGTSVKLSCKASGYTFTSYWMHWIKQRPGQGLEWIGVIDPSDNYINYNQKFKGKATLTVDTSSSTAYLQLSSLTSEDSAVYYCAREAGTRGYFDYWGQGTTLTVSS VL: SIVMTQTPKFLLVSAGDRVIITCKASQSVSNTVAWYQQKPGQSPKLLIYYASNRYTGVPDRFTGSGYGTDFTFTISTVQAEDLAVYFCQQDYRSPFTFGSGTQLEMK |  | no binding | 
9 | MTK-30 (antibody, human IgG1, V domains shown) VH: QVQLQQPGTELVRPGASVKLSCKASGYTFTSYWMHWVKQRPGQGLEWIGNLNPNNGGTYYNEKFKSKATLTVDKSSSTAYMQLSSLTSEDSAVYYCARQILLYFDYWGQGTTLTVSS VL: DVLMTQTPLSLPVSLGDQASISCRSSQSIVHSNGDTYLEWYLQKPGQSPKLLIYKVSNRFSGVPDRFSGSGSGTDFTLKISRVEAEDLGVYYCFQGSHVPWTFGGGTKLEIK |  | no binding | 
10 | MTK-29 (antibody, human IgG1, V domains shown) VH: QIQLVQSGPELKKPGETVKISCKSSGFTFTTYGMSWVKQAPGKGLKWMGWINTYSGVPTYTDDFKGRFAFSLETSASTASLQINNLKNEDTATYFCARYTNYGYFDYWGQGTTLTVSS VL: QIVLSQSPAILSASPGEKVTMTCRATSSVGYMHWYQQKPGSSPKPWIYATSNLASGVPARFSGSGSGTSYSLTISRVEAEHAATYYCQQWGSNPFTFGSGTKLEIK |  | no binding | 
11 | MTK-15 (antibody, human IgG1, V domains shown) VH: QIQLVQSGPELKKPGETVKISCKASGYTFTNYGVHWVKQAPGKGLKWMGWINTYTGEPTYADDFKGRFAFSLETSASTAYLQINNLKNEDMATYFCARGNRYAYMDYWGQGTSVTVSS VL: QIVLSQSPAILSASPGEKVTMTCRASSSVSYMHWYQQKSGSSPKPWIYATSNLASGVPARFSGSGSGTSYSLTISRVEAEDAATYYCQQWSSNPRTFGGGTKLEIK |  | no binding | 
12 | MTK-06 (antibody, human IgG1, V domains shown) VH: QIQLVQSGPELKKPGETVKISCKASGYTFTNYGMNWVKQAPGKGLKWMGWINTNTGEPTYAEEFKGRFAFSLETSASTAYLQINNLKNEDTATYFCARYYNYWYFDVWGAGTTVTVSS VL: QIVLSQSPAILSASPGEKVTMTCRASSSVSYMHWYQQKPGSSPKPWIYATSNLASGVPARFSGSGSGTSYSLTISRVEAEDAATYYCQQWSSKPPTFGGGTKLEIK |  | no binding | 
